Measured values: article doi:10.1101/2023.05.26.542392

Biological target: Full-length SARS-Cov-2-Nucleocapsid (FLN), WT (SARS-CoV-2)
Assay: AUC

In the case of “Full-length SARS-Cov-2-Nucleocapsid (FLN), WT (natural protein)”, the stoichiometry N is reported as 2.
